Laboratory results: PMC9482095
Like-named read-outs stand apart in the source and are kept apart here.

B1: dsIRE (dsDNA)
DNA 1: TAAGCTAGTGGTTTGTTTTGCTTGCTAGCAAT
DNA 2: ATTGCTAGCAAGCAAAACAAACCACTAGCTTA
B2: dsDBE2 (dsDNA)
DNA 1: TAAGCTAGTCTTGTTTACATTTTGCTAGCAAT
DNA 2: ATTGCTAGCAAAATGTAAACAAGACTAGCTTA

Key:
FOXO1 FKH L183P [1] = biological target: T1, FOXO1 FKH L183P (UniProt Q12778 151-265, L183P); assay: EMSA
FOXO1 FKH L183P [2] = biological target: T1, FOXO1 FKH L183P; assay: EMSA; remark: listed apart in the source

T1 sequence (Q12778 151-265 L183P): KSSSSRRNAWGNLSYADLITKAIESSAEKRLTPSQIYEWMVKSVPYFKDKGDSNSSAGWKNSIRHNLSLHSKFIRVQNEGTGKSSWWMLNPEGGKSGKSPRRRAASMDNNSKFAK

| Binder | Kd (FOXO1 FKH L183P [1]) | Kd (FOXO1 FKH L183P [2]) |
| --- | --- | --- |
| B1 | 460 ± 100 nM |  |
| B2 |  | 230 nM |
